Reference: the supplement of paper PMC10567573

B1: KLHL13 (parent)
chain: TGEFLKLPFERLAFVLSSNSLKHC
B2: ALDH8A1 (parent)
chain: FTGSQPTAERITQLSAPHCKKLSL

Variants of: B1
Test: protein stability index of a GFP-peptide fusion (GPS, HEK-293T) (PSI 1-6); higher = more stable
Details: c terminus: a fixed tail appended
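Note: lentivirally expressed fusions sorted by FACS into six bins by GFP to DsRed ratio, PSI derived from sequencing read proportions per bin multiplied by bin number.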

Protein stability index: each site, then its substitutions
H23: K 2.49, V 2.8, M 2.02, P 1.85, D 2.27, W 1.88, Q 4.44, S 4.04, R 1.99, Y 3.32, T 2.17, N 2.42, C 2.87
C24: W 1.03, Q 1.6, L 2.62, Y 3.19, R 2.4, N 2.94, S 1.76, D 2.13, F 3.88, K 1.61, I 4.16, G 1.9, H 2.56, A 1.75, V 2.76, M 2.65, T 2.1, E 1.81
K22: S 4.04, I 2.96, T 2.34, D 2.77, M 3.25, W 3.33, R 2.48, A 2.4, V 3.78, G 2.18, Q 4.87, Y 1.96, P 3.24, C 4.71, L 3.44, E 2.2, N 4.57
N19: L 3.66, G 3.21, R 2.56, V 2.24, W 3.01, Y 3.05, Q 1.81, T 2.98, P 2.62, E 2.44, K 2.22, M 3.78
S20: G 2.59, N 3.25, L 3.05, E 2.34, M 3.42, R 1.87, T 2.98, C 3.52, H 1.49, F 2.55, I 2.7, D 2.29, K 2.43, P 2.4
L21: R 1.63, M 3.88, G 1.75, T 2.49, S 1.44, N 1.88, D 2.79, C 3.31, A 2.92, Y 2.33, I 3.4, F 1.42, V 1.72, Q 1.91, P 2.39, E 2.45, K 1.26, H 2.14

Variants of: B2
Test: as above
Details: c terminus: a fixed tail appended

Protein stability index: each site, then its substitutions
E9: I 2.23, R 1.96, T 1.87, L 3.09, Y 3.14, C 2.14, D 2.52, M 1.37, P 2.05, A 1.96, W 3.33, G 2.1, K 2.06, S 1.86, F 2.74, N 1.99, V 1.46, H 2.15, Q 2.09
I11: D 3.39, N 2.4, E 2.73, K 1.93, L 2.15, W 2.08, F 2.9, Y 2.18, P 3.32, V 2.44, G 2.09, S 2.22, R 2.81, Q 2.49, M 2.61, H 2.96, C 2.6, T 2.84, A 2.48
R10: C 1.94, Y 1.65, E 2.51, G 2.28, D 2.31, M 1.97, A 2.31, Q 2.17, W 1.93, K 1.81, T 2.39, L 2.11, S 2.42, F 1.9, P 2.7, I 1.92, H 2.3, N 2.6, V 1.63
G3: M 2.56, F 1.97, P 2.07, L 2.6, E 3.56, C 2.68, S 2.65, R 2.71, W 2.66, A 2.88, Q 2.38, I 2.77, D 3.15, T 2.69, Y 2.54, K 3.45, V 2.44, H 2.4, N 2.62
T2: S 3.11, A 2.38, D 3.95, Q 3.24, F 2.89, W 2.53, G 3.19, M 3.07, E 3.86, V 1.02, L 2.74, K 3.42, H 2.2, Y 3.35, P 3.41, C 1.86, I 2.07, N 3.41, R 3.37
P6: C 2.42, R 2.15, D 2.43, Y 1.92, V 2.07, K 2.7, M 2.56, G 1.96, I 2.07, A 1.94, E 2.79, H 2.25, S 2.1, Q 2.38, W 3.07, T 1.77, F 1.9, N 2.71, L 2.04
Q5: F 1.68, C 2.45, P 2.99, R 2.39, L 1.65, D 2.19, W 4.02, S 3.01, V 2.38, A 2.08, K 2.06, E 2.57, I 2.39, Y 2.36, G 2.15, M 2.19, N 2.33, H 2.14, T 2.24
A8: I 2.46, G 2.95, Q 2.4, Y 2.27, N 2.09, P 2.3, H 2.61, E 2.6, K 1.8, M 2.58, L 2.42, W 3.71, T 2.24, F 1.42, C 2.09, V 2.45, D 2.16, S 1.9, R 2.6
F1: P 4.14, G 4.34, D 4.38, H 4.18, K 3.96, Q 4.31, S 3.92, T 4.27, A 4.03, W 3.35, E 4.26, M 3.62, Y 2.47, L 3.65, N 4.34, I 3.86, R 3.78, C 3.48, V 3.82
T12: C 1.83, Y 2.69, S 2.79, H 1.84, Q 2.36, A 2.21, M 2, N 2.25, W 3.11, I 1.51, L 1.79, R 2.89, F 2.86, E 3.25, V 2.15, K 2.3, P 2.32, D 2.32, G 2.27
T7: D 2.98, N 2.83, W 1.2, G 2.11, A 3.05, F 2.99, Y 2.61, E 2.62, I 2.39, R 2.55, H 2.02, Q 2.86, L 2.27, K 2.32, P 2.67, S 2.08, V 2, C 2, M 2.12
S4: P 2.67, H 2.59, Q 2.02, G 1.7, D 3.06, F 2.03, R 1.62, N 2.21, K 2.6, C 2.31, V 2.75, L 2.1, M 1.98, A 2.56, I 2.36, Y 2.22, E 3.18, W 3.16, T 2.69
Q13: G 2.31, L 2.08, A 2.31, K 2.48, I 1.35, R 1.91, N 2.2, F 2.94, M 2.03, E 2.5, H 2.24, P 2.16, D 2.61, C 2
